Here are results for eight molecules from PMC7261175, “A splice site-sensing conformational switch in U2AF2 is modulated by U2AF1 and its recurrent myelodysplasia-associated mutation” (Nucleic Acids Research, 2019).

Series [1] deals with T1, His6SumoMBP-U2AF1;U2AF2 Cy3/Cy5 (human;human, UniProt Q01081;P26368-2 1-188;85-342, C67S|A181C;C305A;Q324C). Nature of the series: smFRET titration; protein tethered; from 0.4 and 0.6 FRET peak areas; Anisotropy: 150 mM NaCl, 25 mM HEPES pH 6.8, 0.5 mM TCEP, 3% glycerol, 20 uM ZnCl2, 0.2 U/ul SUPERase-In; smFRET: 25 mM HEPES pH 7.0, 150 mM KCl, 0.01% octaethylene glycol monododecyl ether, 0.2 mM TCEP, 6 mM BME, 1.5 mM Trolox, oxygen scavenger, room temperature, excess U2AF1 (1000 nM) with heterodimer. Particulars: protein: recombinant;recombinant; tags: N-terminal His6-SUMO-MBP with AAA linker; C-terminal extra Ala;GST cleaved; Cy3/Cy5 on C181 and C324; copies: 1;1.

Series [2] has as its target T2, His6SumoMBP-U2AF1 S34F;U2AF2 Cy3/Cy5 (human;human, UniProt Q01081;P26368-2 1-188;85-342, S34F;C67S|A181C;C305A;Q324C). In words: smFRET; RNA tethered; similar to WT; Anisotropy: 150 mM NaCl, 25 mM HEPES pH 6.8, 0.5 mM TCEP, 3% glycerol, 20 uM ZnCl2, 0.2 U/ul SUPERase-In; smFRET: 25 mM HEPES pH 7.0, 150 mM KCl, 0.01% octaethylene glycol monododecyl ether, 0.2 mM TCEP, 6 mM BME, 1.5 mM Trolox, oxygen scavenger, room temperature, excess U2AF1 (1000 nM) with heterodimer. The following applies: protein: recombinant;recombinant, tags: N-terminal His6-SUMO-MBP with AAA linker, C-terminal extra Ala;GST cleaved, Cy3/Cy5 on C181 and C324, copies: 1;1, label: biotin on annealed DNA.

Series [3] has as its target T1, His6SumoMBP-U2AF1;U2AF2 Cy3/Cy5. In words: smFRET; RNA tethered; open and closed; Anisotropy: 150 mM NaCl, 25 mM HEPES pH 6.8, 0.5 mM TCEP, 3% glycerol, 20 uM ZnCl2, 0.2 U/ul SUPERase-In; smFRET: 25 mM HEPES pH 7.0, 150 mM KCl, 0.01% octaethylene glycol monododecyl ether, 0.2 mM TCEP, 6 mM BME, 1.5 mM Trolox, oxygen scavenger, room temperature, excess U2AF1 (1000 nM) with heterodimer. The following applies: protein: recombinant;recombinant; tags: N-terminal His6-SUMO-MBP with AAA linker; C-terminal extra Ala;GST cleaved; Cy3/Cy5 on C181 and C324; copies: 1;1; label: biotin on annealed DNA.

Series [4] deals with T3, U2AF2^Cy3/Cy5 (residues 85-342, C305A, A181C, Q324C, labelled with Cy3/Cy5) (human, UniProt P26368-2 85-342, C305A | A181C | Q324C, Cy3- or Cy5-maleimide on the cysteines at 181 and 324 (a mixture of Cy3/Cy5 at each site)).
T3 construct: pGEX6p-1 vector, GST removed with PreScission protease; also called U2AF^65; labeled U2AF2; not shown: GST, N-terminal, cleaved
Nature of the series: SEC; labelled U2AF2 mixed with stoichiometric His6SumoMBP-U2AF1, salt lowered to 150 mM NaCl, 25 mM HEPES pH 7.0, 3% glycerol, 0.2 mM TCEP; complex purified on Superdex-200. The following applies: both partners purified. On the technique in general: SEC sorts molecules by how far they enter the pores of the column.

Series [5] concerns the target T4, D215R/G319R U2AF2^Cy3/Cy5 (residues 85-342, C305A, A181C, Q324C, labelled with Cy3/Cy5) (human, UniProt P26368-2 85-342, D215R | G319R | C305A | A181C | Q324C, Cy3- or Cy5-maleimide on the cysteines at 181 and 324 (a mixture of Cy3/Cy5 at each site)).
T4 construct: The methods print the mutant once as D215R-D319R; results, legends and discussion print D215R/G319R; also called D215R/G319R mutant; D215R-D319R-mutant U2AF2; not shown: GST, N-terminal, cleaved
Nature of the series: single-molecule imaging (smFRET, TIRF) of labelled U2AF2 tethered to the slide through His-tagged U2AF1; His6SumoMBP-U2AF1 with bound U2AF2^Cy3/Cy5 (5 nM heterodimer) held on biotinyl-NTA(Ni2+)/neutravidin slide; 1000 nM excess U2AF1 in the buffer; no RNA; room temperature; 25 mM HEPES pH 7.0, 150 mM KCl. Particulars: both partners purified.

Series [6] has as its target T3, U2AF2^Cy3/Cy5 (residues 85-342, C305A, …). The series is described as above. Particulars: both partners purified.
Series [7] has as its target T2, His6SumoMBP-U2AF1 S34F;U2AF2 Cy3/Cy5. Nature of the series: smFRET; RNA tethered; 33% closed; Anisotropy: 150 mM NaCl, 25 mM HEPES pH 6.8, 0.5 mM TCEP, 3% glycerol, 20 uM ZnCl2, 0.2 U/ul SUPERase-In; smFRET: 25 mM HEPES pH 7.0, 150 mM KCl, 0.01% octaethylene glycol monododecyl ether, 0.2 mM TCEP, 6 mM BME, 1.5 mM Trolox, oxygen scavenger, room temperature, excess U2AF1 (1000 nM) with heterodimer. Particulars: protein: recombinant;recombinant; tags: N-terminal His6-SUMO-MBP with AAA linker; C-terminal extra Ala;GST cleaved; Cy3/Cy5 on C181 and C324; copies: 1;1; label: biotin on annealed DNA.

Series [8] concerns the target T1, His6SumoMBP-U2AF1;U2AF2 Cy3/Cy5. In words: smFRET; RNA tethered; 66% closed; Anisotropy: 150 mM NaCl, 25 mM HEPES pH 6.8, 0.5 mM TCEP, 3% glycerol, 20 uM ZnCl2, 0.2 U/ul SUPERase-In; smFRET: 25 mM HEPES pH 7.0, 150 mM KCl, 0.01% octaethylene glycol monododecyl ether, 0.2 mM TCEP, 6 mM BME, 1.5 mM Trolox, oxygen scavenger, room temperature, excess U2AF1 (1000 nM) with heterodimer. Particulars: protein: recombinant;recombinant; tags: N-terminal His6-SUMO-MBP with AAA linker; C-terminal extra Ala;GST cleaved; Cy3/Cy5 on C181 and C324; copies: 1;1; label: biotin on annealed DNA.

In series [9] the target is T5, U2AF2 Cy3/Cy5 isolated subunit (human, UniProt P26368-2 113-342, A181C;C305A;Q324C). In words: smFRET; RNA tethered; Anisotropy: 150 mM NaCl, 25 mM HEPES pH 6.8, 0.5 mM TCEP, 3% glycerol, 20 uM ZnCl2, 0.2 U/ul SUPERase-In; smFRET: 25 mM HEPES pH 7.0, 150 mM KCl, 0.01% octaethylene glycol monododecyl ether, 0.2 mM TCEP, 6 mM BME, 1.5 mM Trolox, oxygen scavenger, room temperature, excess U2AF1 (1000 nM) with heterodimer. The following applies: protein: recombinant, tags: His6 and T7 tags, label: biotin on annealed DNA, stem-loop.

The target in series [10] is T1, His6SumoMBP-U2AF1;U2AF2 Cy3/Cy5. Nature of the series: smFRET; RNA tethered; ~70% closed; Anisotropy: 150 mM NaCl, 25 mM HEPES pH 6.8, 0.5 mM TCEP, 3% glycerol, 20 uM ZnCl2, 0.2 U/ul SUPERase-In; smFRET: 25 mM HEPES pH 7.0, 150 mM KCl, 0.01% octaethylene glycol monododecyl ether, 0.2 mM TCEP, 6 mM BME, 1.5 mM Trolox, oxygen scavenger, room temperature, excess U2AF1 (1000 nM) with heterodimer. The following applies: protein: recombinant;recombinant; tags: N-terminal His6-SUMO-MBP with AAA linker; C-terminal extra Ala;GST cleaved; Cy3/Cy5 on C181 and C324; copies: 1;1; label: biotin on annealed DNA; stem-loop.

For series [11], the target named is T5, U2AF2 Cy3/Cy5 isolated subunit. Nature of the series: smFRET; RNA tethered; open and closed; Anisotropy: 150 mM NaCl, 25 mM HEPES pH 6.8, 0.5 mM TCEP, 3% glycerol, 20 uM ZnCl2, 0.2 U/ul SUPERase-In; smFRET: 25 mM HEPES pH 7.0, 150 mM KCl, 0.01% octaethylene glycol monododecyl ether, 0.2 mM TCEP, 6 mM BME, 1.5 mM Trolox, oxygen scavenger, room temperature, excess U2AF1 (1000 nM) with heterodimer. Particulars: protein: recombinant; tags: His6 and T7 tags; Cy3/Cy5; label: biotin on annealed DNA.

The target of series [12] is T2, His6SumoMBP-U2AF1 S34F;U2AF2 Cy3/Cy5. In words: smFRET; RNA tethered; same as IgM(-3C); Anisotropy: 150 mM NaCl, 25 mM HEPES pH 6.8, 0.5 mM TCEP, 3% glycerol, 20 uM ZnCl2, 0.2 U/ul SUPERase-In; smFRET: 25 mM HEPES pH 7.0, 150 mM KCl, 0.01% octaethylene glycol monododecyl ether, 0.2 mM TCEP, 6 mM BME, 1.5 mM Trolox, oxygen scavenger, room temperature, excess U2AF1 (1000 nM) with heterodimer. The following applies: protein: recombinant;recombinant; tags: N-terminal His6-SUMO-MBP with AAA linker; C-terminal extra Ala;GST cleaved; Cy3/Cy5 on C181 and C324; copies: 1;1; label: biotin on annealed DNA; stem-loop (predicted).

In series [13] the target is T1, His6SumoMBP-U2AF1;U2AF2 Cy3/Cy5. Nature of the series: smFRET; RNA tethered; more open than IgM(-3C); Anisotropy: 150 mM NaCl, 25 mM HEPES pH 6.8, 0.5 mM TCEP, 3% glycerol, 20 uM ZnCl2, 0.2 U/ul SUPERase-In; smFRET: 25 mM HEPES pH 7.0, 150 mM KCl, 0.01% octaethylene glycol monododecyl ether, 0.2 mM TCEP, 6 mM BME, 1.5 mM Trolox, oxygen scavenger, room temperature, excess U2AF1 (1000 nM) with heterodimer. Particulars: protein: recombinant;recombinant; tags: N-terminal His6-SUMO-MBP with AAA linker; C-terminal extra Ala;GST cleaved; Cy3/Cy5 on C181 and C324; copies: 1;1; label: biotin on annealed DNA; stem-loop (predicted).

T1 sequence (P26368 85-342 A181C/C305A/Q324C, one chain of several): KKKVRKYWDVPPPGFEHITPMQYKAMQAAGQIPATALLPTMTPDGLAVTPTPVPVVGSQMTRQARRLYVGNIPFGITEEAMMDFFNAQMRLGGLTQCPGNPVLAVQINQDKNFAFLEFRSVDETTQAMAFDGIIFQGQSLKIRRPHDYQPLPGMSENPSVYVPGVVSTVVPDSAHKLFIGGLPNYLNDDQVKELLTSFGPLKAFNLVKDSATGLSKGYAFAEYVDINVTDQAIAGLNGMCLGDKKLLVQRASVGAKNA
T2 sequence (P26368 85-342 A181C/C305A/Q324C, one chain of several): as above
T5 sequence (P26368 113-342 A181C/C305A/Q324C): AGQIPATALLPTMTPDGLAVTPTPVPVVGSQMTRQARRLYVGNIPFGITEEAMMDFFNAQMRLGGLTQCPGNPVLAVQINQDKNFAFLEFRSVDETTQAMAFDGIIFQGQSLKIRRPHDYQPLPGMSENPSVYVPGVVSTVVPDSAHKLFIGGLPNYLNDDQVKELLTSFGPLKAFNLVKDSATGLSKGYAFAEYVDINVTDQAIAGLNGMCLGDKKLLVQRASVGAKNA
T3 sequence (P26368 85-342 A181C/C305A/Q324C): as the sequence (P26368 85-342 A181C/C305A/Q324C, one chain of several) above
T4 sequence (P26368 85-342 A181C/D215R/C305A/G319R/Q324C): as the sequence (P26368 85-342 A181C/C305A/Q324C, one chain of several) above, with D131R, G235R counted along it

For the molecule UCCCUUUUUUUUCCACAGCUCGCGGU (ssRNA) [AdML], in series [1], the Kd is about 600 nM.
Turning to CCAUUUAUUUUGACUUAGAUUAUAUU (ssRNA, 3' PEG18-DNA conjugate) [CASP8], the binding result in series [2] and in series [3] was “binds” each time.

B1: His6SumoMBP-U2AF1 (residues 1-188, C67S, C-terminal alanine) (domain or fragment, human)
chain: MAEYLASIFGTEKDKVNCSFYFKIGACRHGDRCSRLHNKPTFSQTIALLNIYRNPQNSSQSADGLRSAVSDVEMQEHYDEFFEEVFTEMEEKYGEVEEMNVCDNLGDHLVGNVYVKFRREEDAEKAVIDLNNRWFNGQPIHAELSPVTDFREACCRQYEMGECTRGGFCNFMHLKPISRELRRELYGRA
notes: C-terminal alanine added to enhance soluble protein expression; A three-alanine linker is part of the N-terminal tag; Modified pCDF-1b vector; also called U2AF^35; MBP-fused U2AF1; source: E. coli BL21(DE3), purified (HisTrap, Superdex-75 SEC); not shown: His6, N-terminal, kept; Sumo, N-terminal, kept; MBP, N-terminal, kept
For B1, the binding result in series [4] and in series [5] was “binds” in each case.

B2: S34F-mutant His6SumoMBP-U2AF1 (residues 1-188, C67S, C-terminal alanine) (domain or fragment, human)
chain: MAEYLASIFGTEKDKVNCSFYFKIGACRHGDRCFRLHNKPTFSQTIALLNIYRNPQNSSQSADGLRSAVSDVEMQEHYDEFFEEVFTEMEEKYGEVEEMNVCDNLGDHLVGNVYVKFRREEDAEKAVIDLNNRWFNGQPIHAELSPVTDFREACCRQYEMGECTRGGFCNFMHLKPISRELRRELYGRA
notes: C-terminal alanine added to enhance soluble protein expression; S34F was introduced into the corresponding wild-type U2AF1 construct; three-alanine linker in the N-terminal tag as for m1; also called S34F U2AF1; S34F mutant U2AF1; source: E. coli BL21(DE3), purified by identical methods as the wild-type parent (HisTrap, Superdex-75 SEC); not shown: His6, N-terminal, kept; Sumo, N-terminal, …
In the case of B2, the binding result in series [6] is on record as “binds”.
Consider ACUUUUAACUCUCGAUAGGAACUAAU (ssRNA, 3' PEG18-DNA conjugate) [FMR1], for which the binding result in [7] and in series [8] was “binds” each time.
For UGUCUCUGUCACCUGCAGGUGAAAUG (structured_RNA, 3' PEG18-DNA conjugate) [IgM (-3C)], the binding result in series [9], in series [10] and in series [2] (stem-loop) was “binds” throughout.
Consider UACUAAAUUAAUUUCUAGAAAAGAGU (ssRNA, 3' PEG18-DNA conjugate) [DEK (-3U)], for which the binding result in series [2], in series [3] and in [11] was “binds” each time.
Turning to UGUCUCUGUCACCUGUAGGUGAAAUG (structured_RNA, 3' PEG18-DNA conjugate) [IgM(-3U)], the binding result in series [12] and in series [13] was “binds” in each case.

What is called Kd is the equilibrium constant for the complex coming apart.
